T1: SoSL (Ac-651) (Streptomyces ochraceiscleroticus, UniProt A0ABW1MU60)
T1 construct: gene ACFP4F_27515
T1 sequence (A0ABW1MU60 37-329): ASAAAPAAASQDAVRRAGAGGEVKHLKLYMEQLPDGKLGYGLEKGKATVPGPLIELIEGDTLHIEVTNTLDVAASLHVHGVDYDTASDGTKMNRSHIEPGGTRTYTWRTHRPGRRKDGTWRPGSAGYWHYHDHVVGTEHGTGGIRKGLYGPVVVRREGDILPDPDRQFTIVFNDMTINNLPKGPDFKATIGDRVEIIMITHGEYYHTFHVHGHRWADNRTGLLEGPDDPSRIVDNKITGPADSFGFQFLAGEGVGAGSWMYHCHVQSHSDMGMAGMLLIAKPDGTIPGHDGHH

B1: SoSL (Ac-651) (Streptomyces ochraceiscleroticus) (protein)
chain: T1 sequence (A0ABW1MU60 37-329)
notes: TAT signal peptide removed (lacks 36 N-terminal residues of 329), pQE-30 His-tag, E. coli M15 [pREP4], Ni-sepharose; 33 kDa computed, ~35 kDa SDS-PAGE; trimeric

Columns and labels:
SoSL (Ac-651) = molecular target: T1, SoSL (Ac-651); conditions: pH 3.7; inhibitor
purified protein [1] = substrate: CCn1c(=NN=c2sc3cc(S(=O)(=O)O)ccc3n2CC)sc2cc(S(=O)(=O)O)ccc21; experiment: purified protein; format: biochemical, Streptomyces ochraceiscleroticus; conditions: pH 3.5, 30 °C, 50 mM Britton–Robinson buffer, free enzyme (b72 lists the two pH values in reversed order)
purified protein [2] = substrate: COc1cccc(OC)c1O; experiment: purified protein; format: biochemical, Streptomyces ochraceiscleroticus; conditions: pH 9.0, 30 °C, 50 mM Britton–Robinson buffer, free enzyme (b72 lists the two pH values in reversed order)

| Molecule | 10 mM (SoSL (Ac-651)) | Km (purified protein [1]) | kcat (purified protein [1]) | Km (purified protein [2]) | kcat (purified protein [2]) |
| --- | --- | --- | --- | --- | --- |
| F [sodium fluoride] | 67.8 ± 0.6% | – | – | – | – |
| B1 | – | 50 µM | 106 s⁻¹ | 760 µM | 0.11 s⁻¹ |
